Test results: patent US20070078102A1, “NF-kB oligonucleotide decoy molecules” (published 2007)

B1: 153/154 H9/H9 (dsDNA)
DNA 1: AGTTGAGGACTTTCCAGGC
DNA 2: GCCTGGAAAGTCCTCAACT
modifications: 9 3'-most linkages PS on both strands
B2: NF-κB p50 from nuclear extract of LPS stimulated THP-1 cells (human monocyte cell line) (other, UniProt P19838 1-433, looked up)
chain: MAEDDPYLGRPEQMFHLDPSLTHTIFNPEVFQPQMALPTDGPYLQILEQPKQRGFRFRYVCEGPSHGGLPGASSEKNKKSYPQVKICNYVGPAKVIVQLVTNGKNIHLHAHSLVGKHCEDGICTVTAGPKDMVVGFANLGILHVTKKKVFETLEARMTEACIRGYNPGLLVHPDLAYLQAEGGGDRQLGDREKELIRQAALQQTKEMDLSVVRLMFTAFLPDSTGSFTRRLEPVVSDAIYDSKAPNASNLKIVRMDRTAGCVTGGEEIYLLCDKVQKDDIQIRFYEEEENGGVWEGFGDFSPTDVHRQFAIVFKTPKYKDINITKPASVFVQLRRKSDLETSEPKPFLYYPEIKDKEEVQRKRQKLMPNFSDSFGGGSGAGAGGGGMFGSGGGGGGTGSTGPGYSFPHYGFPTYGGITFHPGTTKSNAGMKHG
B3: 153/154 H11/PO (dsDNA)
DNA 1: AGTTGAGGACTTTCCAGGC
DNA 2: GCCTGGAAAGTCCTCAACT
modifications: strand 153: 11 3'-most linkages PS, strand 154 all PO
B4: decoy 113/114 C-Z (HIV NF-kB promoter) (dsDNA)
DNA 1: AGTTGAGGGGACTTTCCCAGGC
DNA 2: GCCTGGGAAAGTCCCCTCAACT
B5: 153/154 H10/H8 (dsDNA)
DNA 1: AGTTGAGGACTTTCCAGGC
DNA 2: GCCTGGAAAGTCCTCAACT
modifications: strand 153: 10 3'-most linkages PS, strand 154: 8 3'-most PS
B6: 153/154 H10/H10 (dsDNA)
DNA 1: AGTTGAGGACTTTCCAGGC
DNA 2: GCCTGGAAAGTCCTCAACT
modifications: 10 3'-most linkages PS on both strands
B7: 153/154 H5/PO (dsDNA)
DNA 1: AGTTGAGGACTTTCCAGGC
DNA 2: GCCTGGAAAGTCCTCAACT
modifications: strand 153: 5 3'-most linkages PS, strand 154 all PO
B8: 153/154 H8/H10 (dsDNA)
DNA 1: AGTTGAGGACTTTCCAGGC
DNA 2: GCCTGGAAAGTCCTCAACT
modifications: strand 153: 8 3'-most linkages PS, strand 154: 10 3'-most PS
B9: 153/154 H8/H8 (dsDNA)
DNA 1: AGTTGAGGACTTTCCAGGC
DNA 2: GCCTGGAAAGTCCTCAACT
modifications: 8 3'-most linkages PS on both strands

Legend:
[1] = biological target: T1, NF-kB p50/p50 homodimer (NFKB1) (Homo sapiens, UniProt P19838 P19838:1-433); test: competition; EMSA competition vs HIV NF-kB probe 113/114; details: protein: extract; tags: endogenous, nuclear extract of LPS-stimulated THP-1 cells; chain copies: 2 (stated)
Description: (§1) The EMSA assay was employed to characterize oligonucleotide decoys for the NF-κB transcription factor. […] Using the above modified oligonucleotides to compete for binding for the above-mentioned NF-κB family members, it was possible to compare the binding affinity of these oligonucleotides against the high affinity radiolabeled probe and each other. This assay has also enabled the design of a decoy which selectively binds particular members of the NF-κB family. By using increasing concentrations of various oligonucleotides, it was observed that, by deleting or changing targeted residues in the binding site, it was possible to specifically decrease the binding of the decoy molecule to p50/p50 homodimers, while retaining the affinity for p65/p50 and cRel/p50 heterodimers.
(§2) The NF-κB gel shift assays (EMSA) were performed as follows. A double-stranded oligonucleotide containing a consensus NF-κB binding site (5′ […] 3′) (SEQ ID NO: 78) was end-labeled with γ³²P-ATP using T4 Polynucleotide Kinase (Promega). Alternatively, a double-stranded ODN containing a consensus NF-κB binding site from the IL-6 promoter (5′ […] 3′) (SEQ ID NO: 94) was end-labeled with γ³²P-ATP using T4 Polynucleotide Kinase (Promega). One microgram of a nuclear extract prepared from LPS stimulated THP-1 cells (human monocyte cell line) was incubated with 35 fmol of radiolabeled probe in the presence or absence of competing unlabeled NF-κB double-stranded oligonucleotides (dsODN) or scrambled dsODN. The incubations were carried out at room temperature for 30 minutes in a 20 μl reaction volume composed of 10 mM Tris-HCl pH 8, 100 mM KCL, 5 mM MgCl2, 2 mM DTT, 10% Glycerol, 0.1% NP-40, 0.025% BSA and 1 μg Poly-dIdC. The reactions were loaded onto a 6% polyacrylamide gel, subjected to electrophoresis and dried. The dried gels were imaged and quantitated using a Typhoon 8600 PhosphorImager (Amersham) and ImageQuant software.

[2] = biological target: T2, NF-κB p65 from nuclear extract of LPS stimulated THP-1 cells (human monocyte cell line) (human, UniProt Q04206 1-551); test: EMSA with antibody supershift, THP-1 nuclear extract; heterodimer on DNA probe
T2 construct: also called RelA
Description: as §2, with “software. […]” for “software.”

[3] = biological target: NF-kB p65/p50 heterodimer (RelA/NFKB1) (Homo sapiens, UniProt Q04206;P19838 Q04206:1-551,P19838:1-433); test: EMSA; competition vs 32P 113/114 probe, THP-1 nuclear extract, RT; details: protein: extract; tags: none; nuclear extract of LPS-stimulated THP-1 cells
Description: as §1
The NF-κB gel shift assays (EMSA) were performed as follows. A double-stranded oligonucleotide containing a consensus NF-κB binding site (5′ […] 3′) (SEQ ID NO: 78) was end-labeled with γ³²P-ATP using T4 Polynucleotide Kinase (Promega). Alternatively, a double-stranded ODN containing a consensus NF-κB binding site from the IL-6 promoter (5′ […] 3′) (SEQ ID NO: 94) was end-labeled with γ³²P-ATP using T4 Polynucleotide Kinase (Promega). […] The dried gels were imaged and quantitated using a Typhoon 8600 PhosphorImager (Amersham) and ImageQuant software.

[4] = biological target: T1, NF-kB p50/p50 homodimer (NFKB1); test: EMSA; competition vs 32P 113/114 probe; details: protein: extract; tags: none; nuclear extract of LPS-stimulated THP-1 cells; chain copies: 2 (stated homodimer)
Description: as §1, §2

Chain of NF-kB p65/p50 heterodimer (RelA/NFKB1) (Q04206 whole entry, one chain of several): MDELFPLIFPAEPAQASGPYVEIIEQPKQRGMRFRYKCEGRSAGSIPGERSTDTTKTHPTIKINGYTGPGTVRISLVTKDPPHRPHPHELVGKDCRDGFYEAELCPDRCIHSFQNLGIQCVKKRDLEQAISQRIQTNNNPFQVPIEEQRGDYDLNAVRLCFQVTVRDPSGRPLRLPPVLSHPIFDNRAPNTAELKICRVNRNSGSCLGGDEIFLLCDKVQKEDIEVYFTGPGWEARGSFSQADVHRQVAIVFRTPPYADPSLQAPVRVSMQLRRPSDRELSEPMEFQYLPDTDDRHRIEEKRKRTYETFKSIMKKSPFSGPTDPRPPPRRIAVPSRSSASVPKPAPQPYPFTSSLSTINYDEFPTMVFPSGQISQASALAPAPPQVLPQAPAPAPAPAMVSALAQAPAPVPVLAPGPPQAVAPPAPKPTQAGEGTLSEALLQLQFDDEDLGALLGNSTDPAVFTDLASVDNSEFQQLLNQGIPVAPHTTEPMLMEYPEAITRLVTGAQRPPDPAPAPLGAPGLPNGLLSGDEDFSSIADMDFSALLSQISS
T2 sequence (Q04206 whole entry): as the sequence (Q04206 whole entry, one chain of several) above

Binder	IC50 [1]	further results
B1	30 fold molar excess	
B2		binding result [2]: binds
B3	33 fold molar excess	
B4		IC50 [3]: 5 fold molar excess; IC50 [4]: 5 fold molar excess
B5	21 fold molar excess	
B6	42 fold molar excess	
B7	83 fold molar excess	
B8	39 fold molar excess	
B9	53 fold molar excess	
